The results in this text go back to patent US20200115466A1 (NANOCRUISE PHARMACEUTICAL, published 2020).

Residue numbers refer to the chain shown, from its start.

The labels stand for the following.
B1: mouse-human chimeric antibody 16A (antibody, human IgG1, lambda, V domains shown)
VH: EVKLHQSGGGLVQPGGFLKISCVVSGIDFSRYWMSWVRRAPGKGLEWIGEITPDSNTINYVPSLKDNFGISRDNAKNTLFLQMTKVRSEDTALYFCASYYEGFAYWGQGTLVTVSA
VL: QAVVTQESALTTSPGETVTLTCRSSTGAVITSNYANWVQEKPDHLFTGLIGRTYNRVPGVPARFSGSLIGDKAALTITGAQTEDEAIYFCALWYSNHFVFGGGTKLTVLG
notes: Murine 16A VH and VL joined to human IgG1 constant region and human lambda 2 light chain; also called chimeric 16A; 16A chimeric antibody
B2: humanized 16A antibody hVH2hVL2 (antibody, human IgG1, lambda, V domains shown)
VH: EVQLVESGGGLVQPGGSLRLSCAVSGIDFSRYWMSWVRQAPGKGLEWVGEITPDSNTINYVPSVKGRFTISRDNAKNSLYLQMNSLRAEDTAVYYCASYYEGFAYWGQGTLVTVSS
VL: QAVVTQEPSLTVSPGGTVTLTCGSSTGAVITSNYANWVQQKPGQAPTGLIGRTYNKVPWTPARFSGSLLGDKAALTLSGAQPEDEAEYFCALWYSNHFVFGGGTKLTVLG
notes: CDR-grafted humanized antibody; also called Humanized HC 2 (H2988) with Humanized LC2 (L2988)
B3: humanized 16A antibody hVH4hVL2 (antibody, human IgG1, lambda, V domains shown)
VH: B2 VH with S17F, A23V, R67N, T69G, Y80F, Y95F
VL: B2 VL
notes: CDR-grafted humanized antibody; also called Humanized HC 4 (H2990) with Humanized LC2 (L2988)
B4: humanized 16A antibody hVH5hVL2 (antibody, human IgG1, lambda, V domains shown)
VH: B2 VH with A23V, T69G, Y95F
VL: B2 VL
notes: CDR-grafted humanized antibody; also called Humanized HC 5 (H2991) with Humanized LC2 (L2988)
B5: humanized 16A antibody hVH3hVL2 (antibody, human IgG1, lambda, V domains shown)
VH: B2 VH with Q3K, Y95F
VL: B2 VL
notes: CDR-grafted humanized antibody; also called Humanized HC 3 (H2989) with Humanized LC2 (L2988)
B6: humanized 16A antibody hVH1hVL2 (antibody, human IgG1, lambda, V domains shown)
VH: B2 VH with G49A
VL: B2 VL
notes: CDR-grafted humanized antibody; also called Humanized HC 1 (H2987) with Humanized LC2 (L2988)

The target of this test is T1, MUC1 on the surface of lung cancer cell line H838 (UniProt P15941 24-1255, limits assumed, tumour-type glycosylation (GalNAc epitope RPAPGS(GalNAc)TAPPAHG), as the filing describes the antigen).
T1 construct: whole, on cells; No MUC1-negative control of H838 is reported; also called antigen
T1 sequence (P15941 24-1255 limits assumed): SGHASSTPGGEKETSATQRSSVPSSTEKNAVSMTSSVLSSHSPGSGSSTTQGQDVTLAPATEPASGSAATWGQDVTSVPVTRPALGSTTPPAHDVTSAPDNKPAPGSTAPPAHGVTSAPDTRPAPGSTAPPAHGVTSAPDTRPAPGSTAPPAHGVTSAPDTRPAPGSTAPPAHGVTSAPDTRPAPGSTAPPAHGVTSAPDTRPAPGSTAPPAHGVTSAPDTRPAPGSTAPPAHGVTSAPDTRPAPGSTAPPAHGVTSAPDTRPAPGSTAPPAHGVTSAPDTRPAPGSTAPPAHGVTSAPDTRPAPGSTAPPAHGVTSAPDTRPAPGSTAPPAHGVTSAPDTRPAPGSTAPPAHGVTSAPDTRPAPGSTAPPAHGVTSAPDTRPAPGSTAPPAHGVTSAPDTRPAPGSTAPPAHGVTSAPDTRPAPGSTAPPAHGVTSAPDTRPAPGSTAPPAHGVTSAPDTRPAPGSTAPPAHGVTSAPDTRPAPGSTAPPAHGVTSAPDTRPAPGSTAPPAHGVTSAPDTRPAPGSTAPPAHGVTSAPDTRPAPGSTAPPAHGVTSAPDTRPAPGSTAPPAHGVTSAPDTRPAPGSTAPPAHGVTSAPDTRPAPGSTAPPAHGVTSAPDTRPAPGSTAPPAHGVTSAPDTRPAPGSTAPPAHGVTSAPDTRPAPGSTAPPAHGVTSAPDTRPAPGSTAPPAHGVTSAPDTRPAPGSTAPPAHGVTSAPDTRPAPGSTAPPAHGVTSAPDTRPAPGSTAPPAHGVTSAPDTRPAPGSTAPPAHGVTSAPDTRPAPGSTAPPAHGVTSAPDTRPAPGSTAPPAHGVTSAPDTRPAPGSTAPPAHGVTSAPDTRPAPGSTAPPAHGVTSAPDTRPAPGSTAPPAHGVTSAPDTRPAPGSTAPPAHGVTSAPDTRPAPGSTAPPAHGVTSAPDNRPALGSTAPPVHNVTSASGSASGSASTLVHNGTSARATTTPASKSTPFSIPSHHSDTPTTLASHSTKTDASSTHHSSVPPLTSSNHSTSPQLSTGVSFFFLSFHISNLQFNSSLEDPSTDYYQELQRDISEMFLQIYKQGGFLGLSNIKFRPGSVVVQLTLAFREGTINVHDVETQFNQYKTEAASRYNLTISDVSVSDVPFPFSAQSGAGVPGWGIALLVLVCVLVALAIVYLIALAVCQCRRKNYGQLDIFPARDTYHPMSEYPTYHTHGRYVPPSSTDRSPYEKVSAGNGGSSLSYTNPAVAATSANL
Briefly: flow cytometry, surface staining of H838 cells, PE anti-human IgG. On the procedure:
Lung cancer cell line H838 was obtained from the University of Texas M.D. Anderson Cancer Center. Cells were cultured in 10% RPMI 1640 medium. Different concentrations of chimeric antibody or humanized antibodies were used as primary antibody for staining, washed three times with PBS, then incubated with PE-conjugated mouse-anti-human IgG (BioLegend). The stained cells were analyzed by FACS Caliber flow cytometer (BD Biosciences, San Jose, Calif.).
In the case of B1, the “Minimum concentration of binding to lung cancer cell line H838” value (from here on “Minimum concentration of binding”) worked out at 0.0125 µg/mL.

Turning to B2, the “Minimum concentration of binding” value came to 0.025 µg/mL.

As for B3, the “Minimum concentration of binding” value came out at 0.05 µg/mL.

For the molecule B4, the “Minimum concentration of binding” value is 0.025 µg/mL.

On to B5, for which the “Minimum concentration of binding” value stood at 0.025 µg/mL.

With B6, the “Minimum concentration of binding” value is 0.025 µg/mL.
